Assay results as given in PMC3807529 (Biochemistry, 2013).

Tests used:
[1] = target: T1, ataxin-3 fragment containing all three UIM sequences (residues 194-361, UIM_123) (human, UniProt P54252 194-361); assay: NMR titration
[2] = target: T1, ataxin-3 fragment containing all three …; assay: NMR titration; remark: listed apart in the source

T1 sequence (P54252 194-361): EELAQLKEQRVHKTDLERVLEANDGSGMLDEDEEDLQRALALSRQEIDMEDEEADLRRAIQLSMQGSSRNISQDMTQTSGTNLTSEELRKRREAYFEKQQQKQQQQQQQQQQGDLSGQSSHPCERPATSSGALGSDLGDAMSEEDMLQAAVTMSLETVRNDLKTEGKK

B1: human parkin ubiquitin-like domain (residues 1-77) (domain or fragment, UniProt O60260 1-77, looked up)
chain: MIVFVRFNSSHGFPVEVDSDTSIFQLKEVVAKRQGVPADQLRVIFAGKELRNDWTVQNCDLDQQSIVHIVQRPWRKG
[1]
  Kd: 236 ± 14 µM
[2]
  KD of each individual UIM (UIM1, UIM2, UIM3) in UIM_123: > 1000 µM
